Test results as given in PMC5347793, “Transcription factor LSF-DNMT1 complex dissociation by FQI1 leads to aberrant DNA methylation and gene expression” (Oncotarget, 2016).

B1: MBP-LSF fusion protein (purified full-length LSF) (natural protein, human, UniProt Q12800 1-502, looked up)
chain: MAWALKLPLADEVIESGLVQDFDASLSGIGQELGAGAYSMSDVLALPIFKQEESSLPPDNENKILPFQYVLCAATSPAVKLHDETLTYLNQGQSYEIRMLDNRKLGELPEINGKLVKSIFRVVFHDRRLQYTEHQQLEGWRWNRPGDRILDIDIPMSVGIIDPRANPTQLNTVEFLWDPAKRTSVFIQVHCISTEFTMRKHGGEKGVPFRVQIDTFKENENGEYTEHLHSASCQIKVFKPKGADRKQKTDREKMEKRTPHEKEKYQPSYETTILTECSPWPEITYVNNSPSPGFNSSHSSFSLGEGNGSPNHQPEPPPPVTDNLLPTTTPQEAQQWLHRNRFSTFTRLFTNFSGADLLKLTRDDVIQICGPADGIRLFNALKGRMVRPRLTIYVCQESLQLREQQQQQQQQQQKHEDGDSNGTFFVYHAIYLEELTAVELTEKIAQLFSISPCQISQIYKQGPTGIHVLISDEMIQNFQEEACFILDTMKAETNDSYHIILK

Assays:
[1] = biological target: T1, purified full-length DNMT1 (recombinant, baculovirus expressed) (human, UniProt P26358 1-1616); assay: cell-based or functional assay
[2] = biological target: T1, purified full-length DNMT1 …; assay: pull-down; as a4, in the presence of 2.5 uM FQI1; conditions: both partners purified
[3] = biological target: B1; assay: pull-down; GST-DNMT1 fusions on beads incubated with 1 ug purified MBP-LSF; immunoblot with anti-LSF; conditions: both partners purified

Binder: B1
- DNA methyltransferase activity of purified DNMT1 (80 nM) with His-LSF recombinant protein, molar ratio of His-LSF to DNMT1 from 2:1 to 4:1 [1]: ~2 fold

B2: GST-LSF (amino acids 65-259), DNA binding domain (domain or fragment, human, UniProt Q12800 65-259, looked up)
chain: LPFQYVLCAATSPAVKLHDETLTYLNQGQSYEIRMLDNRKLGELPEINGKLVKSIFRVVFHDRRLQYTEHQQLEGWRWNRPGDRILDIDIPMSVGIIDPRANPTQLNTVEFLWDPAKRTSVFIQVHCISTEFTMRKHGGEKGVPFRVQIDTFKENENGEYTEHLHSASCQIKVFKPKGADRKQKTDREKMEKRTP
notes: Cloned into pGEX-5X-1; also called LSF65-259; source: E. coli, captured on Glutathione Sepharose beads
- binding result [2]: binds

B3: GST-DNMT1 (amino acids 1-446) (domain or fragment, human, UniProt P26358 1-446, looked up)
chain: MPARTAPARVPTLAVPAISLPDDVRRRLKDLERDSLTEKECVKEKLNLLHEFLQTEIKNQLCDLETKLRKEELSEEGYLAKVKSLLNKDLSLENGAHAYNREVNGRLENGNQARSEARRVGMADANSPPKPLSKPRTPRRSKSDGEAKPEPSPSPRITRKSTRQTTITSHFAKGPAKRKPQEESERAKSDESIKEEDKDQDEKRRRVTSRERVARPLPAEEPERAKSGTRTEKEEERDEKEEKRLRSQTKEPTPKQKLKEEPDREARAGVQADEDEDGDEKDEKKHRSQPKDLAAKRRPEEKEPEKVNPQISDEKDEDEKEEKRRKTTPKEPTEKKMARAKTVMNSKTHPPKCIQCGQYLDDPDLKYGQHPPDAVDEPQMLTNEKLSIFDANESGFESYEALPQHKLTCFSVYCKHGHLCPIDTGLIEKNIELFFSGSAKPIYDDD
- binding result [3]: binds

B4: GST-DNMT1 (amino acids 431-836) (domain or fragment, human, UniProt P26358 431-836, looked up)
chain: IELFFSGSAKPIYDDDPSLEGGVNGKNLGPINEWWITGFDGGEKALIGFSTSFAEYILMDPSPEYAPIFGLMQEKIYISKIVVEFLQSNSDSTYEDLINKIETTVPPSGLNLNRFTEDSLLRHAQFVVEQVESYDEAGDSDEQPIFLTPCMRDLIKLAGVTLGQRRAQARRQTIRHSTREKDRGPTKATTTKLVYQIFDTFFAEQIEKDDREDKENAFKRRRCGVCEVCQQPECGKCKACKDMVKFGGSGRSKQACQERRCPNMAMKEADDDEEVDDNIPEMPSPKKMHQGKKKKQNKNRISWVGEAVKTDGKKSYYKKVCIDAETLEVGDCVSVIPDDSSKPLYLARVTALWEDSSNGQMFHAHWFCAGTDTVLGATSDPLELFLVDECEDMQLSYIHSKVKVIY
- binding result [3]: binds
